B1: humanized anti-QSOX1 antibody H3newK2 (antibody, human IgG1, kappa, V domains shown)
VH: QVQLVESGGGLVQPGRSLRLSCTVSGFSLTGYGVNWFRQAPGKGLEWLGMIWGDGRTDYTASVKGRFTISRDGSKSIAYLQMNSLKTEDTAVYYCASDYYGSGSFAYWGQGTLVTVSS
VL: DIVMTQTPLSLSVTPGQPASISCKASQDVSTAVAWYLQKPGQPPQLLIHSASYRYTGVPDRFSGSGSGTDFTLKISRVEAEDVGVYYCQQHYSIPLTFGPGTKVDIKR
B2: humanized anti-QSOX1 antibody H3newK4 (antibody, human IgG1, kappa, V domains shown)
VH: B1 VH
VL: DIVMTQSPDSLAVSLGERATINCKASQDVSTAVAWYQQKPGQPPKLLIHSASYRYTGVPDRFSGSGSGTDFTLTISSLQAEDVAVYYCQQHYSIPLTFGQGTRLEIKR
B3: humanized anti-QSOX1 antibody H3K4 (antibody, human IgG1, kappa, V domains shown)
VH: QVQLVESGGGLVQPGGSLRLSCSVSGFSLTGYGVNWVRQAPGKGLEWLGMIWGDGRTDYADSVKGRFTISRDNSKNTLYLQMSSLRAEDTAVYYCASDYYGSGSFAYWGQGTLVTVSS
VL: B2 VL
B4: humanized anti-QSOX1 antibody H2bK4 (antibody, human IgG1, kappa, V domains shown)
VH: QITLKESGPTLVKPTQTLTLTCTVSGFSLTGYGVNWIRQPPGKALEWLGMIWGDGRTDYSPSLKSRLTITKDTSKNQVVLTMTNMDPVDTATYYCASDYYGSGSFAYWGRGTLVTVSS
VL: B2 VL

Target: human Quiescin Sulfhydryl Oxidase 1 (QSOX1) (human) (UniProt O00391)
Experiment: oxygen electrode assay of QSOX1 (25 nM) on DTT (200 uM), antibody varied, Morrison tight-binding fit

Chain of UniProt O00391 (O00391 33-546): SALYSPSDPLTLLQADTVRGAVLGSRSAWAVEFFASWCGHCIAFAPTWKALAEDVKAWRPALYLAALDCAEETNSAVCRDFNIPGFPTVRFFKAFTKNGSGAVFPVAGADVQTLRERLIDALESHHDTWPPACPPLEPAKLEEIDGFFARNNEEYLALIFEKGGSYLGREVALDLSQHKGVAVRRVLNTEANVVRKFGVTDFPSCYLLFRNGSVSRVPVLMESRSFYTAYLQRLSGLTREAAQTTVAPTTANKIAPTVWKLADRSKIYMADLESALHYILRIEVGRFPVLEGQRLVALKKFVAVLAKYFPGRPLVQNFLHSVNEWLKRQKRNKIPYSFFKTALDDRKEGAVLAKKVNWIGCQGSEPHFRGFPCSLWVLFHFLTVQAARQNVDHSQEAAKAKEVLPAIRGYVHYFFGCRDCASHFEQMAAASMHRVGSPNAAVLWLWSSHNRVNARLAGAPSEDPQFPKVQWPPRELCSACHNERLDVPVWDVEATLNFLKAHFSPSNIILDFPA

Ki, < 1 nM:
B1
B2
B3
B4

Reference: US20250092158A1
